Substrate in the data set: OC[C@@H](O)[C@H](O)[C@@H](O)CO
The experiment in a line: cells, lysate or membranes. Particulars: proton symport, membrane voltage -40 mV, external pH 5.5.

These results are taken from paper doi:10.1101/2021.09.21.461191v4.

B1: BvPMT5a (Beta vulgaris subsp. vulgaris) (protein)
chain: MSEGTNKAMSDPPPTTASKVIADFDPLKKPPKRNKFAFACATLASMTSVLLGYDIGVMSGAIIYLKEDWHISDTQIGVLVGILNIYCLFGSFAAGRTSDWIGRRYTIVLAGAIFFVGALLMGFATNYAFLMVGRFVTGIGVGYALMIAPVYTAEVSPASSRGFLTSFPEVFINAGILLGYISNLAFSSLPTHLSWRFMLGIGAIPSIFLAIGVLAMPESPRWLVMQGRLGDAKKVLNRISDSPEEAQLRLSEIKQTAGIPAECDEDIYKVEKTKIKSGNAVWKELFFNPTPAVRRAVIAGIGIHFFQQASGIDAVVLYSPRIFQSAGITNARKQLLATVAVGVVKTLFILVATFQLDKYGRRPLLLTSVGGMIIAILTLAMSLTVIDHSHHKITWAIALCITMVCAVVASFSIGLGPITWVYSSEVFPLRLRAQGTSMGVAVNRVVSGVISIFFLPLSHKITTGGAFFLFGGIAIIAWFFFLTFLPETRGRTLENMHELFEDFRWRESFPGNKSNNDENSTRKQSNGNDKSQVQLGETTTSTTVTNDNH
As to B1, the Km amounted to 2500 µM.

A word on the Km: it is the concentration of substrate that gives half-maximal velocity.
